Measurements reported in article PMC7907217 (Biochemistry and Biophysics Reports, 2021).
Several values for one entry are separate records, joined by “and”; a condition that tells them apart may be missing. Identical values can stand only once.

Columns and labels:
3D7 PfAMA1 (DI + DII) [1] = molecular target: T1, 3D7 PfAMA1 (DI + DII) (Plasmodium falciparum 3D7, UniProt Q7KQK5 104-438); assay: ITC
T1 sequence (looked up): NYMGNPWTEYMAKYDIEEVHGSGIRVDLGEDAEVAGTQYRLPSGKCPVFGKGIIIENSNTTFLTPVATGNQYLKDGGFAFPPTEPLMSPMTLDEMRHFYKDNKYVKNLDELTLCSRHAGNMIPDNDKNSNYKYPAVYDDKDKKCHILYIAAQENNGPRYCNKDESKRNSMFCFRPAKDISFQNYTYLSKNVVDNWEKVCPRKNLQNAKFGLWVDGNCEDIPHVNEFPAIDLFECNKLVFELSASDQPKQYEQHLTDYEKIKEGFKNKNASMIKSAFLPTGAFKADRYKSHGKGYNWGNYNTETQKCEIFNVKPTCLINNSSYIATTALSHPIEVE

3D7 PfAMA1 (DI + DII) [2] = molecular target: T1, 3D7 PfAMA1 (DI + DII); assay: SPR

Binder: DITQQAKDIGAGPVASCFTTRMSPPQQICLNSVVNTALS (peptide, UniProt Q8IKV6 2021-2059, looked up) [PfRON2ed peptide (Asp2021-Ser2059)]
- Kd (3D7 PfAMA1 (DI + DII) [1]): 122 nM and 93.5 to 137 nM
- Kd (3D7 PfAMA1 (DI + DII) [2]): 21.9 ± 1.89 nM
